The chains are these.
B1: full-length FIS3 polypeptide (other)
chain: MSKITLGNESIVGSLTPSNKKSYKVTNRIQEGKKPLYAVVFNFLDARFFDVFVTAGGNRITLYNCLGDGAISALQSYADEDKEESFYTVSWACGVNGNPYVAAGGVKGIIRVIDVNSETIHKSLVGHGDSVNEIRTQPLKPQLVITASKDESVRLWNVETGICILIFAGAGGHRYEVLSVDFHPSDIYRFASCGMDTTIKIWSMKEFWTYVEKSFTWTDDPSKFPTKFVQFPVFTASIHTNYVDCNRWFGDFILSKSVDNEILLWEPQLKENSPGEGASDVLLRYPVPMCDIWFIKFSCDLHLSSVAIGNQEGKVYVWDLKSCPPVLITKLSHNQSKSVIRQTAMSVDGSTILACCEDGTIWRWDVITK
notes: The full-length FIS3 cDNA was cloned into pGBT9 and pGAD424; the vector-encoded fusion domain is not included; also called FIE
B3: full-length FIS1 polypeptide (other)
chain: MEKENHEDDGEGLPPELNQIKEQIEKERFLHIKRKFELRYIPSVATHASHHQSFDLNQPAAEDDNGGDNKSLLSRMQNPLRHFSASSDYNSYEDQGYVLDEDQDYALEEDVPLFLDEDVPLLPSVKLPIVEKLPRSITWVFTKSSQLMAESDSVIGKRQIYYLNGEALELSSEEDEEDEEEDEEEIKKEKCEFSEDVDRFIWTVGQDYGLDDLVVRRALAKYLEVDVSDILERYNELKLKNDGTAGEASDLTSKTITTAFQDFADRRHCRRCMIFDCHMHEKYEPESRSSEDKSSLFEDEDRQPCSEHCYLKVRSVTEADHVMDNDNSISNKIVVSDPNNTMWTPVEKDLYLKGIEIFGRNSCDVALNILRGLKTCLEIYNYMREQDQCTMSLDLNKTTQRHNQVTKKVSRKSSRSVRKKSRLRKYARYPPALKKTTSGEAKFYKHYTPCTCKSKCGQQCPCLTHENCCEKYCGCSKDCNNRFGGCNCAIGQCTNRQCPCFAANRECDPDLCRSCPLSCGDGTLGETPVQIQCKNMQFLLQTNKKILIGKSDVHGWGAFTWDSLKKNEYLGEYTGELITHDEANERGRIEDRIGSSYLFTLNDQLEIDARRKGNEFKFLNHSARPNCYAKLMIVRGDQRIGLFAERAIEEGEELFFDYCYGPEHADWSRGREPRKTGASKRSKEARPAR
notes: Expressed in yeast from the two-hybrid vectors pGBT9 and pGAD424, so it was a fusion with the vector-encoded domain; also called MEDEA/FIS1; MEA

Data set [1] deals with T1, full-length FIS2 polypeptide (Arabidopsis thaliana, UniProt P0DKJ7 1-813, limits assumed).
T1 construct: The full-length FIS2 cDNA was cloned into pGBT9 and pGAD424; the vector-encoded fusion domain is not included
T1 sequence: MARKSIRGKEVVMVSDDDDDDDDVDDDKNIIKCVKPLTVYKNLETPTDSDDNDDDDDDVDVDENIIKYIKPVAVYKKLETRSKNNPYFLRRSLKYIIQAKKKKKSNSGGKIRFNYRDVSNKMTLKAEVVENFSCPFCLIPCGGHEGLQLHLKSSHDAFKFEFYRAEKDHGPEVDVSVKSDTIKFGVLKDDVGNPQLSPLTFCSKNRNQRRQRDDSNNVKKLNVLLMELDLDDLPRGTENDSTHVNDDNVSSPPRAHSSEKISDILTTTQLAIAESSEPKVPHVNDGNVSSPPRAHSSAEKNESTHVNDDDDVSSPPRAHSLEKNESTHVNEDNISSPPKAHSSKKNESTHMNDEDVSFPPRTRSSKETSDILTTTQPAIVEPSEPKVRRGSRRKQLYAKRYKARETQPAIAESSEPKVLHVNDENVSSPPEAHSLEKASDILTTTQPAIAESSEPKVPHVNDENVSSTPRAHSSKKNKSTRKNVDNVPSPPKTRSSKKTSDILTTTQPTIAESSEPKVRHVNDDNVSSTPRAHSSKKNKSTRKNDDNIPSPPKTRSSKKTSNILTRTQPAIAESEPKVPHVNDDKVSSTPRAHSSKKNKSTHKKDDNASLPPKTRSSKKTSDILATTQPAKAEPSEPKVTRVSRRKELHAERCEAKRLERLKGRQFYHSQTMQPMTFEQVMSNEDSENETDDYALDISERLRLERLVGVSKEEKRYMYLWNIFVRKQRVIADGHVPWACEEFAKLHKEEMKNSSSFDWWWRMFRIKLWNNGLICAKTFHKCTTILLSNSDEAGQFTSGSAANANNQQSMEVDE
Put plainly: yeast two-hybrid (pGBT9 / pGAD424, adenine selection and beta-galactosidase). The source says:
(§1) In particular, the full-length FIS1 cDNA sequence, encoding a 689 amino acid polypeptide comprising the A, C5, N, CXC and SET domains, and the deletion mutants designated: ΔBgl, encoding a 513 amino acid polypeptide and lacking the C-terminal SET domain-encoding region; ΔBcl, encoding a 320 amino acid polypeptide and lacking the C-terminal N, CXC and SET domain-encoding regions; ΔPst, encoding a 62 amino acid polypeptide and lacking the C-terminal portion of FIS1 comprising the five domain-encoding regions; and Δ160, lacking 160 bp at the 5′-end of the FIS1 cDNA, were constructed (FIG. 27). The full-length FIS2 and FIS3 cDNAs were also used. Control constructs, employing the empty vectors pGBT9 and pGAD424, or alternatively the EzA1 cDNA, were also used. Each cDNA was cloned into each vector and yeast were transformed with vectors expressing different FIS polypeptides, in the presence of adenine selection and β-Galactosidase activation, to select for cells expressing from both constructs.

The target of data set [2] is B3. The data set is described as follows: yeast two-hybrid.
From the text: as §1

For data set [3], the target named is B1. Put plainly: yeast two-hybrid.
From the text: as §1

The data set “yeast two-hybrid” concerns the molecule itself. Put plainly: yeast two-hybrid.
From the text: as §1

Turning to B1, the binding result in data set [1] is “no binding”; in data set [2], “binds”.

B2: FIS1 deletion mutant Bcl (320 amino acid polypeptide comprising the A and C5 regions only) (other)
chain: MEKENHEDDGEGLPPELNQIKEQIEKERFLHIKRKFELRYIPSVATHASHHQSFDLNQPAAEDDNGGDNKSLLSRMQNPLRHFSASSDYNSYEDQGYVLDEDQDYALEEDVPLFLDEDVPLLPSVKLPIVEKLPRSITWVFTKSSQLMAESDSVIGKRQIYYLNGEALELSSEEDEEDEEEDEEEIKKEKCEFSEDVDRFIWTVGQDYGLDDLVVRRALAKYLEVDVSDILERYNELKLKNDGTAGEASDLTSKTITTAFQDFADRRHCRRCMIFDCHMHEKYEPESRSSEDKSSLFEDEDRQPCSEHCYLKVRSVTEAD
notes: Expressed as a yeast two-hybrid vector fusion (pGBT9 / pGAD424); the fusion domain is not included; also called delta-Bcl; truncated FIS1 having the C-terminal 369 amino acids containing the N, CXC and SET domains deleted
As for B2, the binding result in data set [2] and in data set [3] was “binds” throughout.

On to B3, for which the binding result in the data set “yeast two-hybrid” is “binds”.

Values taken from patent US20030126647A1 (published 2003).
